Test results: IntAct's records for PubMed 16682949

B1: Nuclear distribution protein nudE homolog 1 (Homo sapiens), Q9NXR1 (parent)
chain: MEDSGKTFSSEEEEANYWKDLAMTYKQRAENTQEELREFQEGSREYEAELETQLQQIETRNRDLLSENNRLRMELETIKEKFEVQHSEGYRQISALEDDLAQTKAIKDQLQKYIRELEQANDDLERAKRATIMSLEDFEQRLNQAIERNAFLESELDEKENLLESVQRLKDEARDLRQELAVQQKQEKPRTPMPSSVEAERTDTAVQATGSVPSTPIAHRGPSSSLNTPGSFRRGLDDSTGGTPLTPAARISALNIVGDLLRKVGALESKLASCRNLVYDQSPNRTGGPASGRSSKNRDGGERRPSSTSVPLGDKGLDTSCRWLSKSTTRSSSSC
partner: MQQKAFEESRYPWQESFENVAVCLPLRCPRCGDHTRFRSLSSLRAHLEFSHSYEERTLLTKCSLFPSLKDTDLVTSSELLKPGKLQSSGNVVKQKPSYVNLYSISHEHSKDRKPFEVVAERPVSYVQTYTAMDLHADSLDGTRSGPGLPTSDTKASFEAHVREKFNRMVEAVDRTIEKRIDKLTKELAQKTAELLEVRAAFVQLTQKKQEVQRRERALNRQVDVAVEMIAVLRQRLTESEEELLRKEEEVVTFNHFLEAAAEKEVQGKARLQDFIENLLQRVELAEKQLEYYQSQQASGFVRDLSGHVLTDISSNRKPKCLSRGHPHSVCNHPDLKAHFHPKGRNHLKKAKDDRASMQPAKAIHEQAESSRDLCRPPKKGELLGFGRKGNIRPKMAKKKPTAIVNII
B2: Nuclear distribution protein nudE homolog 1 (Homo sapiens), Q9NXR1 (parent)
chain: B1 chain

Variants of: B1
Settings: with zn365_human ZNF365, Q70YC5

| Variant | effect of a mutation on the interaction |
| --- | --- |
| MEDSGKTFSSEEEEANYWKDLAMTYKQRAENTQEELREFQEGSREYEAELETQLQQIETRNRDLLSENNRLRMELETIKEKFEVQHSEGYRQISALEDDLAQTKAIKDQLQKYIRELEQANDDLERAKRATIMSLEDFEQRLNQAIERNAFLESELDEKENLLESVQRLKDEARDLRQELAVQQKQEKPREPMPSSVEAERTDTAVQATGSVPSEPIAHRGPSSSLNEPGSFRRGLDDSTGGEPLEPAARISALNIVGDLLRKVGALESKLASCRNLVYDQEPNRTGGPASGRSSKNRDGGERRPSSTSVPLGDKGLDTSCRWLSKSTTRSSSSC [T191E;T215E;T228E;T243E;T246E;S282E] | decreasing interaction |

Variants of: B1
Settings: with zn365_human ZNF365, Q70YC5
Remark: another data set of the same source

| Variant | effect of a mutation on the interaction |
| --- | --- |
| MEDSGKTFSSEEEEANYWKDLAMTYKQRAENTQEELREFQEGSREYEAELETQLQQIETRNRDLLSENNRLRMELETIKEKFEVQHSEGYRQISALEDDLAQTKAIKDQLQKYIRELEQANDDLERAKRATIMSLEDFEQRLNQAIERNAFLESELDEKENLLESVQRLKDEARDLRQELAVQQKQEKPREPMPSSVEAERTDTAVQATGSVPSEPIAHRGPSSSLNEPGSFRRGLDDSTGGEPLEPAARISALNIVGDLLRKVGALESKLASCRNLVYDQEPNRTGGPASGRSSKNRDGGERRPSSTSVPLGDKGLDTSCRWLSKSTTRSSSSC [T191E;T215E;T228E;T243E;T246E;S282E] | decreasing interaction |

Variants of: B2
Settings: with cdk1_human CDK1, P06493
Sequence of cdk1_human CDK1, P06493 (P06493 whole entry, looked up): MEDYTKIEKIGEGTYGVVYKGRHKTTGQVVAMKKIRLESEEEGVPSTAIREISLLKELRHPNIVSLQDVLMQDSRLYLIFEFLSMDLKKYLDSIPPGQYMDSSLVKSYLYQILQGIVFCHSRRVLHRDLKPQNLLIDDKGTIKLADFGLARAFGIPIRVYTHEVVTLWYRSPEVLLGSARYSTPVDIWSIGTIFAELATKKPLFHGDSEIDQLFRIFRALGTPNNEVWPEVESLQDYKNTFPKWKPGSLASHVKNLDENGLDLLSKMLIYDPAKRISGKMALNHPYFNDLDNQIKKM

| Variant | effect of a mutation on the interaction |
| --- | --- |
| MEDSGKTFSSEEEEANYWKDLAMTYKQRAENTQEELREFQEGSREYEAELETQLQQIETRNRDLLSENNRLRMELETIKEKFEVQHSEGYRQISALEDDLAQTKAIKDQLQKYIRELEQANDDLERAKRATIMSLEDFEQRLNQAIERNAFLESELDEKENLLESVQRLKDEARDLRQELAVQQKQEKPRVPMPSSVEAERTDTAVQATGSVPSVPIAHRGPSSSLNVPGSFRRGLDDSTGGVPLVPAARISALNIVGDLLRKVGALESKLASCRNLVYDQVPNRTGGPASGRSSKNRDGGERRPSSTSVPLGDKGLDTSCRWLSKSTTRSSSSC [T191V;T215V;T228V;T243V;T246V;S282V] | decreasing interaction |
